Article PMC10075960, “Inhibition of FAM46/TENT5 activity by BCCIPα adopting a unique fold” (Science Advances, 2023)

B1: BCCIPα-ΔS (residues 50 to 322 with deletions of residues 112 to 122, 235 to 243, and 273 to 276) (domain or fragment, human, UniProt Q9P287-2 50-322, looked up)
chain: DEVIDEEVNIEFEAYSLSDNDYDGIKKLLQQLFLKAPVNTAELTDLLIQQNHIGSVIKQTDVEVFGFISLLNLTERKGTQCVEQIQELVLRFCEKNCEKSMVEQLDKFLNDTTKPVGLLLSERFINVPPQIALPMYQQLQKELAGAHRTNKPCGKCYFYLLISKTFVEAGKNNSAALMFANAEEEFFYEEQGKPEVLGGPDTRPVPIQHNGGSRGQVTALVSLKAGLIQSRSTLSDFQGTFMTVGIALS
notes: human BCCIPα residues 50 to 322 with three loop deletions; source: E. coli BL21 (DE3), purified (Ni-NTA, on-column 3C cleavage, Resource Q); not shown: His6, N-terminal, cleaved
B2: BCCIPα-ΔL (residues 50 to 322 with deletions of residues 112 to 122 and 231 to 280) (domain or fragment, human, UniProt Q9P287-2 50-322, looked up)
chain: DEVIDEEVNIEFEAYSLSDNDYDGIKKLLQQLFLKAPVNTAELTDLLIQQNHIGSVIKQTDVEVFGFISLLNLTERKGTQCVEQIQELVLRFCEKNCEKSMVEQLDKFLNDTTKPVGLLLSERFINVPPQIALPMYQQLQKELAGAHRTNKPCGKCYFYLLISKTFVEAGQHNGGSRGQVTALVSLKAGLIQSRSTLSDFQGTFMTVGIALS
notes: human BCCIPα residues 50 to 322 with two loop deletions; source: E. coli BL21 (DE3), purified (Ni-NTA, on-column 3C cleavage, Resource Q); not shown: His6, N-terminal, cleaved
B3: Nb.1 (VHH)
VHH: QVQLQESGGGLVQAGGSLRLSCAASGTISPRGVMGWYRQAPGKEREFVAAINYGGTTYYADSVKGRFTISRDNAKNTVYLQMNSLKPEDTAVYYCAVYYYINSQRKVLLYWGQGTQVTVSS
notes: nanobody selected from a synthetic yeast-display library; cloned into a modified pET28 vector; also called nanobody Nb.1
B4: BCCIPα with a Myc-tag (natural protein, human, UniProt Q9P287-2 1-322, looked up)
chain: MASRSKRRAVESGVPQPPDPPVQRDEEEEKEVENEDEDDDDSDKEKDEEDEVIDEEVNIEFEAYSLSDNDYDGIKKLLQQLFLKAPVNTAELTDLLIQQNHIGSVIKQTDVSEDSNDDMDEDEVFGFISLLNLTERKGTQCVEQIQELVLRFCEKNCEKSMVEQLDKFLNDTTKPVGLLLSERFINVPPQIALPMYQQLQKELAGAHRTNKPCGKCYFYLLISKTFVEAGKNNSKKKPSNKKKAALMFANAEEEFFYEEQGKPEVLGGPDTRRGLEPVPIQHNGGSRGQVTALVSLKAGLIQSRSTLSDFQGTFMTVGIALS

How the values were obtained:
[1] = molecular target: T1, FAM46A (residues 64 to 394) (human, UniProt Q96IP4 64-394); test: crystal structure; FAM46A (64-394) with BCCIPα-ΔS (3.5 Å) or BCCIPα-ΔL (3.2 Å); complexes mixed 1:1 and purified on Superdex 200; conditions: both partners purified
T1 construct: human FAM46A (TENT5A) residues 64 to 394; also called TENT5A; source: E. coli BL21 (DE3), purified (Ni-NTA, on-column 3C cleavage, Resource Q); not shown: His6, N-terminal, cleaved
T1 sequence (looked up): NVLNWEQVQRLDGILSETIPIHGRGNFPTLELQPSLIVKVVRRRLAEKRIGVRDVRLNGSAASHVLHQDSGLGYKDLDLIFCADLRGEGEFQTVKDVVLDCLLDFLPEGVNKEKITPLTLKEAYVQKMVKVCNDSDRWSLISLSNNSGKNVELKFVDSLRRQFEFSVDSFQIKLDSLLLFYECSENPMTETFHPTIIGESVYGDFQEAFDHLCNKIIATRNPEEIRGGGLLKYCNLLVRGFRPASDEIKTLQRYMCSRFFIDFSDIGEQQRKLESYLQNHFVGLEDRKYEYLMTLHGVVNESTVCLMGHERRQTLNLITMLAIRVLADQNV

[2] = molecular target: B1; test: cryo-EM structure; FAM46C/BCCIPα-ΔS/Nb.1 mixed 1:1:2, purified on Superdex 200; filament segments treated as single particles, D2 symmetry, 6.5 Å; models docked as rigid bodies; conditions: both partners purified
FAM46C/BCCIPα-ΔS complex = molecular target: T2, FAM46C/BCCIPα-ΔS complex (human, UniProt Q5VWP2 1-391; Q9P287-2 50-322, deletions of residues 112 to 122 | deletions of residues 235 to 243 | deletions …); test: as above; conditions: both partners purified
T2 construct: human FAM46C (TENT5C), as m15; Avi-tagged, biotinylated FAM46C residues 15 to 350 in the nanobody screening; human BCCIPα residues 50 to 322 with three loop deletions, as m12; with Nb.1 it forms a 4:4:4 assembly of four 1:1:1 units and filaments; also called FAM46C/BCCIPα complex; FAM46C/BCCPα complex; source: E. coli BL21 (DE3), each protein purified, then mixed; not shown: His6, N-terminal, …

[3] = molecular target: T3, Full-length human FAM46C with a FLAG-tag (human, UniProt Q5VWP2 1-391); test: cell-based or functional assay
T3 sequence (looked up): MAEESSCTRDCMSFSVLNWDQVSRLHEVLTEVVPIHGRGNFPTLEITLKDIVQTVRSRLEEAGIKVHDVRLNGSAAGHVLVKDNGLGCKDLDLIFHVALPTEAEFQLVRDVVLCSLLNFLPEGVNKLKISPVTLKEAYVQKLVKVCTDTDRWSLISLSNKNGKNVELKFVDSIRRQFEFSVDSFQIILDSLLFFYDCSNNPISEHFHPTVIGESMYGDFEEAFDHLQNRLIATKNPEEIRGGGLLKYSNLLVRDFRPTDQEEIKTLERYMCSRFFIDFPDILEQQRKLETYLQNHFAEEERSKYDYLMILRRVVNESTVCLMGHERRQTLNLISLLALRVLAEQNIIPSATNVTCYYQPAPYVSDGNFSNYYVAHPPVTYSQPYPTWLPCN

[4] = molecular target: T4, Full-length human FAM46A with a FLAG-tag (human, UniProt Q96IP4 1-442); test: cell-based or functional assay
T4 sequence (looked up): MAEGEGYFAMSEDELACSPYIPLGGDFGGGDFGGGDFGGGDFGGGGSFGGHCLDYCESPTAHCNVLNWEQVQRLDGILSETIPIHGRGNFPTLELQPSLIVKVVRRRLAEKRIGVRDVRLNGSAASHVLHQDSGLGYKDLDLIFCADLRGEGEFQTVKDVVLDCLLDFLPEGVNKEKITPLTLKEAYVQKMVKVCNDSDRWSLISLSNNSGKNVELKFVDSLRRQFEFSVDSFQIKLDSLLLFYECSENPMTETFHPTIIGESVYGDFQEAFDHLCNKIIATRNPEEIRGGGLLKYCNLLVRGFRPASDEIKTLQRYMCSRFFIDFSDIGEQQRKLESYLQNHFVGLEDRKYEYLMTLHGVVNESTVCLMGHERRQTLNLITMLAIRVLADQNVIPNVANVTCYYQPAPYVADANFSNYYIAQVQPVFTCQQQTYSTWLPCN

Q: Does B1 bind [1]?
A: binds

Q: Does B2 bind [1]?
A: binds

Q: Which results are given for B3?
A: binding result [2]: binds; stoichiometry N (FAM46C/BCCIPα-ΔS complex): 1

Q: How did the “mean nucleus/cytoplasm intensity ratio of FAM46C in U2OS cells coexpressing BCCIPα (immunofluorescence; 1.94 without BCCIPα)” value [3] turn out when B4 was run?
A: 3.04

Q: What about the “mean nucleus/cytoplasm intensity ratio of FAM46A in U2OS cells coexpressing BCCIPα (immunofluorescence; 1.90 without BCCIPα)” value [4] of the same binder?
A: 2.85
